What was measured:
[1] = biological target: C113T109N biotin labeled HCV core peptide (hepatitis C virus); experiment: EIA; Ab 1000 ng/mL captured on anti-mouse Fc; bt-peptide 500 ng/mL
[2] = biological target: 92-133 biotin labeled HCV core peptide (hepatitis C virus) (UniProt P26664); experiment: as above
[3] = biological target: Mut6T110S biotin labeled HCV core peptide (hepatitis C virus); experiment: as above
[4] = biological target: Mut1T110N biotin labeled HCV core peptide (hepatitis C virus); experiment: as above
[5] = biological target: C113T109N biotin labeled HCV core peptide (hepatitis C virus); experiment: EIA; Ab 15.625 ng/mL captured on anti-mouse Fc; bt-peptide 500 ng/mL
[6] = biological target: 92-133 biotin labeled HCV core peptide (hepatitis C virus) (UniProt P26664); experiment: as above
[7] = biological target: Mut6T110S biotin labeled HCV core peptide (hepatitis C virus); experiment: as above
[8] = biological target: Mut1T110N biotin labeled HCV core peptide (hepatitis C virus); experiment: as above
[9] = biological target: C113T109N biotin labeled HCV core peptide (hepatitis C virus); experiment: EIA; Ab 2000 ng/mL captured on anti-mouse Fc; bt-peptide 500 ng/mL
[10] = biological target: 92-133 biotin labeled HCV core peptide (hepatitis C virus) (UniProt P26664); experiment: as above
[11] = biological target: Mut6T110S biotin labeled HCV core peptide (hepatitis C virus); experiment: as above
[12] = biological target: Mut1T110N biotin labeled HCV core peptide (hepatitis C virus); experiment: as above
[13] = biological target: C113T109N biotin labeled HCV core peptide (hepatitis C virus); experiment: EIA; Ab 125 ng/mL captured on anti-mouse Fc; bt-peptide 500 ng/mL
[14] = biological target: 92-133 biotin labeled HCV core peptide (hepatitis C virus) (UniProt P26664); experiment: as above
[15] = biological target: Mut6T110S biotin labeled HCV core peptide (hepatitis C virus); experiment: as above
[16] = biological target: Mut1T110N biotin labeled HCV core peptide (hepatitis C virus); experiment: as above
[17] = biological target: Mut6T110S biotin labeled HCV core peptide (hepatitis C virus); experiment: EIA; Ab 500 ng/mL captured on anti-mouse Fc; bt-peptide 500 ng/mL
[18] = biological target: Mut1T110N biotin labeled HCV core peptide (hepatitis C virus); experiment: as above

For HCV C11-3 monoclonal antibody, the signal at 492 nm [1] was 0.0806 OD 492 nm, the signal at 492 nm [2] was 1.87 OD 492 nm and the signal at 492 nm [3] was 2.15 OD 492 nm. For the same substance, the signal at 492 nm [4] was 0.0721 OD 492 nm, the signal at 492 nm [5] was 0.116 OD 492 nm and the signal at 492 nm [6] was 1.01 OD 492 nm. For the same substance, the signal at 492 nm [7] was 0.807 OD 492 nm, the signal at 492 nm [8] was 0.11 OD 492 nm and the signal at 492 nm [9] was 0.0707 OD 492 nm. The signal at 492 nm [10] was 1.45 OD 492 nm, the signal at 492 nm [11] was 1.73 OD 492 nm and the signal at 492 nm [12] was 0.0915 OD 492 nm. For the same substance, the signal at 492 nm [13] was 0.147 OD 492 nm, the signal at 492 nm [14] was 1.83 OD 492 nm and the signal at 492 nm [15] was 2.02 OD 492 nm. For the same substance, the signal at 492 nm [16] was 0.127 OD 492 nm, the signal at 492 nm [17] was 2.24 OD 492 nm and the signal at 492 nm [18] was 0.0765 OD 492 nm.
